# Experimental data: patent US12497460B2, “Anti-MSR1 antibodies and methods of use thereof” (REGENERON PHARMACEUTICALS, INC., priority 2018, dated 2025)
# T1: PMA-treated THP-1 cells (endogenously expressed human MSR1) (Homo sapiens, UniProt P21757)
# T1 construct: endogenous in cells; host or cells: THP-1 cells differentiated with PMA
# T1 sequence (P21757 1-451): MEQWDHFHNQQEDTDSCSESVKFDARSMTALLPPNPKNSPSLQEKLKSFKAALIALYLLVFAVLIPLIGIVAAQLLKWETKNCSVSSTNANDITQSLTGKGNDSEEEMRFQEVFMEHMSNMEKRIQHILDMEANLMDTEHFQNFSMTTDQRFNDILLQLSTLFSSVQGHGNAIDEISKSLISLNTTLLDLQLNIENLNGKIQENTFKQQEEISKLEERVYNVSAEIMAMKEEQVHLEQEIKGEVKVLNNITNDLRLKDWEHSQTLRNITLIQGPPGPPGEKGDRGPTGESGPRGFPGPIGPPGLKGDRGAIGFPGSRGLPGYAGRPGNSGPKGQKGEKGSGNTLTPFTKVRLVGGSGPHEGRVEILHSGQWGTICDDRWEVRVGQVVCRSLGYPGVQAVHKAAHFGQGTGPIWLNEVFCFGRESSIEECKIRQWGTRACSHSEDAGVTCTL
# T2: His9-hMSR1 (human MSR1 extracellular domain) (Homo sapiens, UniProt P21757)
# T2 construct: human MSR1 extracellular domain expressed with a N-terminal nonahistidine tag; His9 (nonahistidine) (N); purchased R&D Systems 2708-MS
# T2 sequence (P21757 77-451 limits assumed): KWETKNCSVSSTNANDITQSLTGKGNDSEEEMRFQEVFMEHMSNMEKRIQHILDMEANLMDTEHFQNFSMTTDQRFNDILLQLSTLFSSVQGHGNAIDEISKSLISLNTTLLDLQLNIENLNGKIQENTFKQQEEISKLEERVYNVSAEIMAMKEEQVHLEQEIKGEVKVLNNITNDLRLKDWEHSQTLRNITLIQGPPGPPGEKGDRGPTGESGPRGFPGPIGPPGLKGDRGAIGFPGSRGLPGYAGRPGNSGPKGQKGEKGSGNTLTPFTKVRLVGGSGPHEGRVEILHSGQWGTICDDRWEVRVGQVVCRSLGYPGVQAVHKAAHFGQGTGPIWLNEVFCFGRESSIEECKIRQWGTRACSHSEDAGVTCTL
# Experiments:
# [1] = target: T1, PMA-treated THP-1 cells (endogenously expressed human MSR1); assay: Electrochemiluminescence antibody binding assay on MSR1-expressing cells; assay type: cell-based
# [2] = target: HMM-mfMSR1 (monkey MSR1 extracellular domain); assay: Biacore surface plasmon resonance binding kinetics of anti-MSR1 mAbs, antibody-capture format; conditions: analyte HMM-mfMSR1, NB = no binding observed; for kd: * = no dissociation observed, kd manually fixed at 1.00E−05; for ka: antibody-capture format; for Kd: calculated from kinetic rates; for t½: dissociative half-life
# Sequence of HMM-mfMSR1 (monkey MSR1 extracellular domain) (as listed by the source): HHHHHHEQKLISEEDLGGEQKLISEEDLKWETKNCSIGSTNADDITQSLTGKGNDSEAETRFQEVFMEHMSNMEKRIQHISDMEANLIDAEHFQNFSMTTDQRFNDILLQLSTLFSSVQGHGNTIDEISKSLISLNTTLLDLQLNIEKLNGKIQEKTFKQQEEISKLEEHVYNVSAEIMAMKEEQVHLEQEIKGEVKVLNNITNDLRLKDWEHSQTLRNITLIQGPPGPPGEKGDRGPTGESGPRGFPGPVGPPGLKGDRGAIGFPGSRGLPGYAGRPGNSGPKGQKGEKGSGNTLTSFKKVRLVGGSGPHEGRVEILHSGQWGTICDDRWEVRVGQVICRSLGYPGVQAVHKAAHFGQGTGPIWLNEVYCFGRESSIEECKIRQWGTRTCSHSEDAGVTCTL
# Procedure: (§1) Binding affinities and kinetic constants of human anti-MSR1 antibodies for different MSR1 reagents were determined by real-time surface plasmon resonance (Biacore 4000). All binding studies were performed in 10 mM HEPES, 150 mM NaCl, 3 mM EDTA, and 0.05% v/v Surfactant Tween-20, pH 7.4 (HBS-ET) running buffer at 25° C. and 37° C.
# (§2) The association rate (ka) and dissociation rate (kd) were determined by fitting the real-time binding sensorgrams to a 1:1 binding model with mass transport limitation using Scrubber 2.0c curve-fitting software. Binding dissociation equilibrium constant (KD) and dissociative half-life (t½) were calculated from the kinetic rates as: […]
# [3] = target: T2, His9-hMSR1 (human MSR1 extracellular domain); assay: as above; conditions: analyte His9-hMSR1, NB = no binding observed; for kd: * = no dissociation observed, kd manually fixed at 1.00E−05; for ka: antibody-capture format; for Kd: calculated from kinetic rates; for t½: dissociative half-life
# Procedure: as §1, §2
# [4] = tested on: parental HEK293 cells; assay: Electrochemiluminescence antibody binding assay, non-specific binding control cells; assay type: cell-based, human
Molecule,"Ratio of 11 nM Antibody Binding Signal (RLU) to isotype control, PMA-treated THP-1 [1]",kd ([2]; 25° C.) [s⁻¹],ka ([2]; 25° C.) [M⁻¹ s⁻¹],Kd ([2]; 25° C.) [nM],t½ ([2]; 25° C.) [h],kd ([2]; 37° C.),ka ([2]; 37° C.) [M⁻¹ s⁻¹],Kd ([2]; 37° C.) [nM],t½ ([2]; 37° C.) [h],kd ([3]; 25° C.) [s⁻¹],ka ([3]; 25° C.) [M⁻¹ s⁻¹],Kd ([3]; 25° C.) [nM],t½ ([3]; 25° C.) [h],kd ([3]; 37° C.),ka ([3]; 37° C.) [M⁻¹ s⁻¹],Kd ([3]; 37° C.) [nM],t½ ([3]; 37° C.) [h],"Ratio of 11 nM Antibody Binding Signal (RLU) to isotype control, HEK293 [4]"
"H1H21227N: ""anti-MSR1 antibodies ... (21227N, 21231N, 21234N) were produced with the original human Fcγ portion""; ""H1H"" = human IgG1 Fc (antibody, V domains shown, human IgG1 Fc, ""anti-MSR1 antibodies ; (21227N, 21231N, 21234N) were produced with the original human Fcγ portion""; ""H1H"" = human IgG1 Fc) VH: QVQLVQSGAEVKKPGASVKVSCKVSGYTLTELSIHWVRQVPGKGLEWMGGFDPEEGETIFAQEFRDRVTLTEDTSPDTAYMELSSLKSEDAAVYYCTTPRYCNNGICYDYWGQGTLVTVSS VL: DIQMTQSPSSLSASVGDRVTITCRASQSISNYLNWYQQKPGKAPKLLIYTASSLQSGVPSRFSGSGSGTDFTLTISSLQTEDFATYYCQQSYSNFPITFGQGTRLEIKR",7,4.41e-05,1.27e+06,0.0348,4.37,1.00E−05* s^−1,2.76e+06,0.00362,19.25,1.44e-05,1.2e+06,0.012,13.3,1.85e-05 s⁻¹,2.56e+06,0.00724,10.4,1
"H1H21227N-N297D: ""The 21227N antibody was also produced as a third version with a N297D mutation"" (antibody, V domains shown) VH: QVQLVQSGAEVKKPGASVKVSCKVSGYTLTELSIHWVRQVPGKGLEWMGGFDPEEGETIFAQEFRDRVTLTEDTSPDTAYMELSSLKSEDAAVYYCTTPRYCNNGICYDYWGQGTLVTVSS VL: DIQMTQSPSSLSASVGDRVTITCRASQSISNYLNWYQQKPGKAPKLLIYTASSLQSGVPSRFSGSGSGTDFTLTISSLQTEDFATYYCQQSYSNFPITFGQGTRLEIKR",6,4.03e-05,1.35e+06,0.0299,4.78,2.42e-05 s⁻¹,2.68e+06,0.00903,7.95,3.79e-05,1.14e+06,0.0333,5.08,1.00E−05* s^−1,2.73e+06,0.00366,19.25,1
